Data on one molecule can be found in patent publication US20260070986A1 (AFFIMED, published 2026).

Assay [1] deals with T1, recombinant human FcγRIIC (CD32C), biotinylated (human, UniProt P31995 43-223, limits assumed, site-directed biotinylation at AviTag).
T1 construct: also called human CD32C
T1 sequence (looked up): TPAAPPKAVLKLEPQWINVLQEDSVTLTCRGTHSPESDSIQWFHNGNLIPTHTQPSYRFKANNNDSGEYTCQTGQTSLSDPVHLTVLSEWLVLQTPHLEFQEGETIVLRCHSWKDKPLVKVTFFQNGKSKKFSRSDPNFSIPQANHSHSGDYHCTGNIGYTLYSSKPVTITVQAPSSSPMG
Nature of the assay: SPR (Biacore), 37 °C, biotin-captured human CD32C as ligand, steady-state plot; left-hand column, no heading on the sheet. As to the method:
FIG. 21: SPR interaction analysis of antibody binding to CD32. […] Affinity parameters were evaluated for interaction with receptors using a Steady State Binding model.
Background: Surface plasmon resonance follows binding to a sensor surface in real time, without labels.

The target of assay [2] is T2, recombinant human FcγRI (CD64), biotinylated (human, UniProt P12314 16-288, limits assumed, site-directed biotinylation at AviTag).
T2 construct: also called human CD64
T2 sequence (P12314 16-288 limits assumed): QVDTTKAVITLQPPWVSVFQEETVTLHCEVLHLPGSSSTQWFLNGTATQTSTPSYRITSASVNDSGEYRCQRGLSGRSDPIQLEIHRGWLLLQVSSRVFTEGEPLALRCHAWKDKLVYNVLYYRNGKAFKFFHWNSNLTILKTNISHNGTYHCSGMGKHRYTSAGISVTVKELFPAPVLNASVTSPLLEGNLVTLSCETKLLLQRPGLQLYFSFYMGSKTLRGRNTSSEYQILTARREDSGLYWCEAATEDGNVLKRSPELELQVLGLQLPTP
Put plainly: SPR (Biacore), 37 °C, biotin-captured human CD64 as ligand, steady-state plot; left-hand column, no heading on the sheet. On the procedure:
FIG. 20: SPR interaction analysis of antibody binding to CD64 and murine CD16-2. […] Affinity parameters were evaluated for interaction with receptors using a Steady State Binding model.

Assay [3] deals with T3, recombinant cynomolgus neonatal Fc receptor (FcRn), biotinylated (cynomolgus, UniProt Q8SPV9 24-297, limits assumed, site-directed biotinylation at AviTag).
T3 construct: also called cynomolgus FcRn
T3 sequence (Q8SPV9 24-297 limits assumed, form in doubt): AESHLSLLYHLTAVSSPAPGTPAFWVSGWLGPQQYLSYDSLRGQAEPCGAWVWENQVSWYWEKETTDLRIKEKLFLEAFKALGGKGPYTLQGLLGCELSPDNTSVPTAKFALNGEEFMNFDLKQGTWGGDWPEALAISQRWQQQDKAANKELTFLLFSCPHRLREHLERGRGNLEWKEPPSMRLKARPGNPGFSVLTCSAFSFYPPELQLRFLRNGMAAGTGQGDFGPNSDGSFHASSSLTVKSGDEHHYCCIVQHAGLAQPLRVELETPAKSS
Nature of the assay: SPR (Biacore), 37 °C, pH 6.0, biotin-captured cynomolgus FcRn as ligand, steady-state affinity fit. On the procedure:
(§1) Affinity parameters were evaluated for interaction with human FcRn, cynomolgus FcRn or murine FcRn using a Steady State Binding model (D-F).

Assay [4] addresses T4, recombinant murine neonatal Fc receptor (FcRn), biotinylated (murine, UniProt Q61559 22-297, limits assumed, site-directed biotinylation at AviTag).
T4 construct: also called murine FcRn
T4 sequence (looked up): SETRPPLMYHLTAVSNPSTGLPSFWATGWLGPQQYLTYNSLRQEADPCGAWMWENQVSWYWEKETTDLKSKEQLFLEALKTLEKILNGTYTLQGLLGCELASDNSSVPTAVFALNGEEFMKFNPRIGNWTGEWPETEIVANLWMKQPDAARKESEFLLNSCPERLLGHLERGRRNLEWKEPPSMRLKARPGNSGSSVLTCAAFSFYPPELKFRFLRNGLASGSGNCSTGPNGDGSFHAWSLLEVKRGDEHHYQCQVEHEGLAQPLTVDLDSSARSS
Nature of the assay: SPR (Biacore), 37 °C, pH 6.0, biotin-captured murine FcRn as ligand, steady-state affinity fit. As to the method:
as §1

B1: scFv-IgAb_268 (CD123-1xCD16a1) (bispecific antibody)
heavy: QVQLQQSGAEVKKPGASVKVSCKASGYTFTDYYMKWVKQSHGKSLEWMGDIIPSNGATFYNQKFKGKATLTVDRSTSTAYMELSSLRSEDTAVYYCARSHLLRASWFAYWGQGTLVTVSSASTKGPSVFPLAPSSKSTSGGTAALGCLVKDYFPEPVTVSWNSGALTSGVHTFPAVLQSSGLYSLSSVVTVPSSSLGTQTYICNVNHKPSNTKVDKKVEPKSCDKTHTCPPCPAPEFEGGPSVFLFPPKPKDTLMISRTPEVTCVVVAVSHEDPEVKFNWYVDGVEVHNAKTKPREEQYNSTYRVVSVLTVLHQDWLNGKEYKCKVSNKALPAPIEKTISKAKGQPREPQVYTLPPSREEMTKNQVSLTCLVKGFYPSDIAVEWESNGQPENNYKTTPPVLDSDGSFFLYSKLTVDKSRWQQGNVFSCSVMHEALHNHYTQKSLSLSPGGGGGSGGGGSGGGGSGGGGSGGGGSGGGGSSYELTQPLSVSVALGQTARITCGGNNIGSKSVHWYQQKPGQAPVLVIYQDKKRPSGIPERFSGSNSGNTATLTISRAQAGDEADYYCQVWDDYIVLFGCGTKLTVLGGSGGSGGSGGSGGSGGSGGSQVQLVQSGAEVKKPGASVKVSCKASGYTFTNYYMQWVRQAPGQCLEWMGIINPSGGVTSYAQKFQGRVTMTRDTSTSTVYMELSSLRSEDTAVYYCARGSAYYYDFADYWGQGTLVTVSS
light: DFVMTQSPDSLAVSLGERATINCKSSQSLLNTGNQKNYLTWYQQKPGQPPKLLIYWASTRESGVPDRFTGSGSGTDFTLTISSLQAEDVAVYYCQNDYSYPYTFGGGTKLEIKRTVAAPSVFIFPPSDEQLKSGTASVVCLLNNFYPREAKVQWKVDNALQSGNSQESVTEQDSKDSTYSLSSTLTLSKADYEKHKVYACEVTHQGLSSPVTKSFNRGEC
notes: also called AFM28; CD123xCD16A scFv-IgAb_268
B1: the binding result in assay [1] and in assay [2] was “no binding” in each case. Moreover, the Kd in assay [3] worked out at 238 nM; in assay [4], 72 nM.

For orientation: Kd means the constant that tells how readily two partners part at equilibrium.
